Where a chain is given by its changes, count along the chain named. Names and notes keep the numbering of the source.
B1: Human ETHE1 wild type (enzyme, UniProt O95571 8-254, looked up)
chain: VARRQLSQRGGSGAPILLRQMFEPVSCTFTYLLGDRESREAVLIDPVLETAPRDAQLIKELGLRLLYAVNTHCHADHITGSGLLRSLLPGCQSVISRLSGAQADLHIEDGDSIRFGRFALETRASPGHTPGCVTFVLNDHSMAFTGDALLIRGCGRTDFQQGCAKTLYHSVHEKIFTLPGDCLIYPAHDYHGFTVSTVEEERTLNPRLTLSCEEFVKIMGNLNLPKPQQIDFAVPANMRCGVQTPTA
notes: Holds about 1 mol iron per mol protein; also called ETHE1-WT; wild-type ETHE1; source: E. coli Bl21 DE3, purified (His-trap HP, Superdex 75 size exclusion)
B2: Human ETHE1-p.Arg163Trp (enzyme, UniProt O95571 8-254, looked up)
chain: B1 chain with R156W
notes: also called ETHE1 R163W; source: E. coli Bl21 DE3, purified (His-trap HP, Superdex 75 size exclusion)
B3: Human ETHE1-p.Arg163Gln (enzyme, UniProt O95571 8-254, looked up)
chain: B1 chain with R156Q
notes: also called ETHE1 R163Q; source: E. coli Bl21 DE3, purified (His-trap HP, Superdex 75 size exclusion)

Target: the molecule itself
Assay: SEC; Superdex 75 in 50 mM Tris-HCl pH 7.5, 150 mM NaCl, column calibrated with standard proteins; native molecular mass determined; data not shown

Stoichiometry N, 2:
B1, B2, B3

Reference: publication PMC4157841, “Ethylmalonic Encephalopathy ETHE1 R163W/R163Q Mutations Alter Protein Stability and Redox Properties of the Iron Centre” (PLoS ONE, 2014)
